# Results published in PMC9482650, “Quantitative fragmentomics allow affinity mapping of interactomes” (Nature Communications, 2022).
# T1: PTPN13_1, Q12923
# T1 sequence (Q12923 1088-1188, limits assumed, looked up): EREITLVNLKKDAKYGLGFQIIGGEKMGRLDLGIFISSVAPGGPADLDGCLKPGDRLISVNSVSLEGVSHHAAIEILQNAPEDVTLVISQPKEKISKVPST
# T2: DVL3, Q92997
# T2 sequence (Q92997 244-331, limits assumed, looked up): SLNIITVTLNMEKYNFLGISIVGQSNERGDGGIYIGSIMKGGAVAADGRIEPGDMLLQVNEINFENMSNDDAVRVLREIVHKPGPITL
# T3: FRMPD1, Q5SYB0
# T3 sequence (Q5SYB0 52-145, limits assumed, looked up): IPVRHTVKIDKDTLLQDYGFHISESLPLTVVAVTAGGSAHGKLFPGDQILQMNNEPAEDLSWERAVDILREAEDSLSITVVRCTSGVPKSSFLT
# T4: LNX2_2, Q8N448
# T4 sequence (Q8N448 334-432, limits assumed, looked up): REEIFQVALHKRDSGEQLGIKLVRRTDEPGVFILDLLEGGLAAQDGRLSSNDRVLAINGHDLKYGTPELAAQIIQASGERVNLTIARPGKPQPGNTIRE
# T5: PDZRN3_1, Q9UPQ7
# T5 sequence (Q9UPQ7 244-349, limits assumed, looked up): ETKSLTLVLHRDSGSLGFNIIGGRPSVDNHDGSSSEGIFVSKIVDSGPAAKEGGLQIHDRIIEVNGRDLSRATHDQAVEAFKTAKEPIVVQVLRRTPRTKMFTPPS
# T6: GRIP1_4, Q9Y3R0
# T6 sequence (Q9Y3R0 467-571, limits assumed, looked up): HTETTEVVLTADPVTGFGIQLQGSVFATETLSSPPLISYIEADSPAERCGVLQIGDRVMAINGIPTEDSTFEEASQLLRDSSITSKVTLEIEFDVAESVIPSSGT
# T7: PDZD2_2, O15018
# T7 sequence (O15018 329-429, limits assumed, looked up): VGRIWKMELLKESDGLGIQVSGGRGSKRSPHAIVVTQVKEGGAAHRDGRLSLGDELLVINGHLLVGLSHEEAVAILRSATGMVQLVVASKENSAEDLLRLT
# T8: ARHGEF11, O15085
# T8 sequence (O15085 42-136, limits assumed, looked up): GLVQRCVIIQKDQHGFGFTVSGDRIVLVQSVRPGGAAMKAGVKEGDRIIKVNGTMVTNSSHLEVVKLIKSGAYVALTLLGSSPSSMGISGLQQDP
# T9: CARD11, Q9BXL7
# T9 sequence (Q9BXL7 662-765, limits assumed, looked up): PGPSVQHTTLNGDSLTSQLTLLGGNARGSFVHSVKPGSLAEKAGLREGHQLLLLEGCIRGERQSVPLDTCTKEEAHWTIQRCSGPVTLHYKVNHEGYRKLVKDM
# T10: LNX2_3, Q8N448
# T10 sequence (Q8N448 463-564, limits assumed, looked up): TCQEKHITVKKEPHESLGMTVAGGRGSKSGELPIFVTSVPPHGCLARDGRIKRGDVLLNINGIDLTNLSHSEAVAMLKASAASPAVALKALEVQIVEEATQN
# T11: RAPGEF6, Q8TEU7
# T11 sequence (Q8TEU7 525-625, limits assumed, looked up): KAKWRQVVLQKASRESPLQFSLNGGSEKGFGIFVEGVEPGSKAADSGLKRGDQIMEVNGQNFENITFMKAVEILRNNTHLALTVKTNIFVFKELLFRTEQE
# T12: HTRA4, P83105
# T12 sequence (P83105 378-476, limits assumed, looked up): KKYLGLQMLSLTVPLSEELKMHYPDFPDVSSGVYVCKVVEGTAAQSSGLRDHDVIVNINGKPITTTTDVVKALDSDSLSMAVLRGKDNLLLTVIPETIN
# Assays:
# Test in all cases: holdup assay
# Design in all cases: key: below the threshold = too weak to quantify, mostly under pKd 3.1 to 4
# Settings in all cases: plain residues with an end cap or a label only (N-terminal biotin on a linker: ado-ado)
# MAGI2_5, Q86UL8 = target: MAGI2_5, Q86UL8
# MAGI2_5, Q86UL8, sequence (Q86UL8 915-1017): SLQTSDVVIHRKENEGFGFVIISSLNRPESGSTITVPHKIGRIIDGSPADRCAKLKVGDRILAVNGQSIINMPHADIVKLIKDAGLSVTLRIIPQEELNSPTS
# GORASP1, Q9BQQ3 = target: GORASP1, Q9BQQ3
# GORASP1, Q9BQQ3, sequence (Q9BQQ3 1-208): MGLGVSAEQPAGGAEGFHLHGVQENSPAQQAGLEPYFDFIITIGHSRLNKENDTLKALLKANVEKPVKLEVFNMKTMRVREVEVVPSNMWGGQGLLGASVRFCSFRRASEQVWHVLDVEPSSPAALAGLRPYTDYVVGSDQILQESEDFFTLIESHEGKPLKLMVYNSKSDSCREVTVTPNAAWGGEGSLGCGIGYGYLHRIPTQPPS
# PTPN13_1, Q12923 = target: T1, PTPN13_1, Q12923
# DVL3, Q92997 = target: T2, DVL3, Q92997
# GRIP2_3, Q9C0E4 = target: GRIP2_3, Q9C0E4
# GRIP2_3, Q9C0E4, sequence (Q9C0E4 238-339): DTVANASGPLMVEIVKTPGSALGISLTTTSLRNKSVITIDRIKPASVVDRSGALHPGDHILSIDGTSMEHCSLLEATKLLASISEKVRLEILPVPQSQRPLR
# NHERF4_2, Q86UT5 = target: NHERF4_2, Q86UT5
# NHERF4_2, Q86UT5, sequence (Q86UT5 220-308): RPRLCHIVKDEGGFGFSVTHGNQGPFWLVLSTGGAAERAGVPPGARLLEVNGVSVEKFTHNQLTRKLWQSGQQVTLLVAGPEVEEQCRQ
# FRMPD1, Q5SYB0 = target: T3, FRMPD1, Q5SYB0
# LNX2_2, Q8N448 = target: T4, LNX2_2, Q8N448
# PDZRN3_1, Q9UPQ7 = target: T5, PDZRN3_1, Q9UPQ7
# GRIP2_6, Q9C0E4 = target: GRIP2_6, Q9C0E4
# GRIP2_6, Q9C0E4, sequence (Q9C0E4 648-740): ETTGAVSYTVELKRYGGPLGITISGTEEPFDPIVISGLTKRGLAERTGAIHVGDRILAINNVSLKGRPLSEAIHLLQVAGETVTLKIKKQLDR
# LIMK2, P53671 = target: LIMK2, P53671
# LIMK2, P53671, sequence (P53671 143-248): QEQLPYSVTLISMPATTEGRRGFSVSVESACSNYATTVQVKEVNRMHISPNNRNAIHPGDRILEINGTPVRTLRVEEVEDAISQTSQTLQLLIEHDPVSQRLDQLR
# DLG5_1, Q8TDM6 = target: DLG5_1, Q8TDM6
# DLG5_1, Q8TDM6, sequence (Q8TDM6 617-713): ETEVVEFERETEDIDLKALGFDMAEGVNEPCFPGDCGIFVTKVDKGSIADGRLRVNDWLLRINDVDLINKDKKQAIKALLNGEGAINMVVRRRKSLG
# GRIP1_4, Q9Y3R0 = target: T6, GRIP1_4, Q9Y3R0
# NOS1, P29475 = target: NOS1, P29475
# NOS1, P29475, sequence (P29475 9-101): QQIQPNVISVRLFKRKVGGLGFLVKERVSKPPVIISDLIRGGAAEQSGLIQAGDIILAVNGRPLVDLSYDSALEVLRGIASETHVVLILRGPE
# GRID2IP_2, A4D2P6 = target: GRID2IP_2, A4D2P6
# GRID2IP_2, A4D2P6, sequence (A4D2P6 272-370): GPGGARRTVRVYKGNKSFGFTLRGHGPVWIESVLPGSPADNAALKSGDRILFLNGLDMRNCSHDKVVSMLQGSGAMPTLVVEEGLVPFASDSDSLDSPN
# SNX27, Q96L92 = target: SNX27, Q96L92
# PDZD2_2, O15018 = target: T7, PDZD2_2, O15018
# LNX1_3, Q8TBB1 = target: LNX1_3, Q8TBB1
# LNX1_3, Q8TBB1, sequence (Q8TBB1 500-596): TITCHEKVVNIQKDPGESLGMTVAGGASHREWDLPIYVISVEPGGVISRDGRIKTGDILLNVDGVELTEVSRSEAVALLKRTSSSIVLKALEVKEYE
# MAGI1_2, Q96QZ7 = target: MAGI1_2, Q96QZ7
# MAGI1_2, Q96QZ7, sequence (Q96QZ7 456-580): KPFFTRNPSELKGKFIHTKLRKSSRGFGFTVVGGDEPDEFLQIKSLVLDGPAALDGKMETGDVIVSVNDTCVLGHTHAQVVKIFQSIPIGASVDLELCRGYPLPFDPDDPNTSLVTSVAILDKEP
# ARHGEF11, O15085 = target: T8, ARHGEF11, O15085
# CARD11, Q9BXL7 = target: T9, CARD11, Q9BXL7
# LNX2_3, Q8N448 = target: T10, LNX2_3, Q8N448
# RAPGEF6, Q8TEU7 = target: T11, RAPGEF6, Q8TEU7
# HTRA4, P83105 = target: T12, HTRA4, P83105
# PARD3_3, Q8TEW0 = target: PARD3_3, Q8TEW0
# PARD3_3, Q8TEW0, sequence (Q8TEW0 582-685): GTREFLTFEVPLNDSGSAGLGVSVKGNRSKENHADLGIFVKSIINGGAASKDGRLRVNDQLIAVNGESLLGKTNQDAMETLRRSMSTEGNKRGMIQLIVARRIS
# Inadl_3, Q8NI35 = target: Inadl_3, Q8NI35
# Inadl_3, Q8NI35, sequence (Q8NI35 359-469): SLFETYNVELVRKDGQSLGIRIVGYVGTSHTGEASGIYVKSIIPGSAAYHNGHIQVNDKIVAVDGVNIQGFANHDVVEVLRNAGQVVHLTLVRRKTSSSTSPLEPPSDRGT
Binder,"pKd (MAGI2_5, Q86UL8)","pKd (GORASP1, Q9BQQ3)","pKd (PTPN13_1, Q12923)","pKd (DVL3, Q92997)","pKd (GRIP2_3, Q9C0E4)","pKd (NHERF4_2, Q86UT5)","pKd (FRMPD1, Q5SYB0)","pKd (LNX2_2, Q8N448)","pKd (PDZRN3_1, Q9UPQ7)","pKd (GRIP2_6, Q9C0E4)","pKd (LIMK2, P53671)","pKd (DLG5_1, Q8TDM6)","pKd (GRIP1_4, Q9Y3R0)","pKd (NOS1, P29475)","pKd (GRID2IP_2, A4D2P6)","pKd (SNX27, Q96L92)","pKd (PDZD2_2, O15018)","pKd (LNX1_3, Q8TBB1)","pKd (MAGI1_2, Q96QZ7)","pKd (ARHGEF11, O15085)",also measured
"DRIQSCLSDA [SBF1, O95248]",3.6,below the threshold,3.49,below the threshold,below the threshold,below the threshold,below the threshold,below the threshold,below the threshold,below the threshold,below the threshold,below the threshold,below the threshold,below the threshold,below the threshold,below the threshold,below the threshold,below the threshold,below the threshold,below the threshold,"pKd (CARD11, Q9BXL7): below the threshold; pKd (LNX2_3, Q8N448): below the threshold; pKd (RAPGEF6, Q8TEU7): below the threshold; pKd (HTRA4, P83105): below the threshold; pKd (PARD3_3, Q8TEW0): below the threshold; pKd (Inadl_3, Q8NI35): below the threshold"
"PSVGSKKTVL [REELD1, A0A1B0GV85]",below the threshold,below the threshold,below the threshold,below the threshold,below the threshold,below the threshold,below the threshold,below the threshold,3.48,below the threshold,below the threshold,below the threshold,below the threshold,3.64,4.75,3.71,3.52,below the threshold,3.56,4.2,"pKd (CARD11, Q9BXL7): below the threshold; pKd (LNX2_3, Q8N448): below the threshold; pKd (RAPGEF6, Q8TEU7): below the threshold; pKd (HTRA4, P83105): 3.91; pKd (PARD3_3, Q8TEW0): below the threshold; pKd (Inadl_3, Q8NI35): below the threshold"
"LKDDELKTKL [SLCO1A2, P46721]",3.75,below the threshold,below the threshold,below the threshold,below the threshold,below the threshold,below the threshold,below the threshold,below the threshold,below the threshold,below the threshold,below the threshold,below the threshold,3.5,4.55,3.8,below the threshold,below the threshold,below the threshold,3.98,"pKd (CARD11, Q9BXL7): below the threshold; pKd (LNX2_3, Q8N448): below the threshold; pKd (RAPGEF6, Q8TEU7): below the threshold; pKd (HTRA4, P83105): below the threshold; pKd (PARD3_3, Q8TEW0): below the threshold; pKd (Inadl_3, Q8NI35): below the threshold"
"SFISKKEWYV [NECTIN1, Q15223]",below the threshold,4.44,below the threshold,4.51,below the threshold,below the threshold,below the threshold,5.05,below the threshold,4.3,below the threshold,below the threshold,below the threshold,3.6,below the threshold,below the threshold,5.02,4.49,4.28,4.41,"pKd (CARD11, Q9BXL7): below the threshold; pKd (LNX2_3, Q8N448): below the threshold; pKd (RAPGEF6, Q8TEU7): below the threshold; pKd (HTRA4, P83105): below the threshold; pKd (PARD3_3, Q8TEW0): 4.53; pKd (Inadl_3, Q8NI35): 4.83"
